Where “and” joins values, the source holds several entries; their conditions need not be identical. Identical values can stand only once. One block for each binder: values may come before it.
B2: Cyno IL-6R (receptor, cynomolgus monkey)
chain: EVARGVLTSLPGDSVTLTCPGGEPEDNATVHWVLRKPAEGSHLSRWAGVGRRLLLRSVQLHDSGNYSCYRAGRPAGTVHLLVDVPPEEPQLSCFRKSPLSNVVCEWGPRSTPSPTTKAVLLVRKFQNSPAEDFQEPCQYSQESQKFSCQLAVPEGDSSFYIVSMCVASSVGSKLSKTQTFQGCGILQPDPPANITVTAVARNPRWLSVTWQDPHSWNSSFYRLRFELRYRAERSKTFTTWMVKDLQHHCVIHDAWSGLRHVVQLRAQEEFGQGEWSEWSPEAMGTPWTESRSPPAENEVSTPTQAPTTNKDDDNILSGDSANATSLPVQDSSSVPLP
notes: also called cynomolgus monkey IL-6R; recombinant cyno sIL-6R

Key:
Human soluble IL-6R [1] = molecular target: T1, Human soluble IL-6R (human, UniProt P08887 20-358); test: Biacore T100
T1 construct: Soluble recombinant form; biotinylated in some assays; also called hIL-6R; human IL-6R
T1 sequence (looked up): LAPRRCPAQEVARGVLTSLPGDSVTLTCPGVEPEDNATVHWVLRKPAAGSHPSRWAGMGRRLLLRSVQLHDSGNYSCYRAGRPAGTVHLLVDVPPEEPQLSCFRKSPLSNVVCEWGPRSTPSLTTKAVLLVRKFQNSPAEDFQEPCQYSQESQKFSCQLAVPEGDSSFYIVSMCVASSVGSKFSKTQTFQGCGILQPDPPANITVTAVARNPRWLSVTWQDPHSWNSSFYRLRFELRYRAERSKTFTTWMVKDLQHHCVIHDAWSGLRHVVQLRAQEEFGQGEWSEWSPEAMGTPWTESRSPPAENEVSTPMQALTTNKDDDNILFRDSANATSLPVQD

[2] = molecular target: T2, Human membrane IL-6R on cells (human, UniProt P08887 20-468); test: cell-based or functional assay
T2 sequence (looked up): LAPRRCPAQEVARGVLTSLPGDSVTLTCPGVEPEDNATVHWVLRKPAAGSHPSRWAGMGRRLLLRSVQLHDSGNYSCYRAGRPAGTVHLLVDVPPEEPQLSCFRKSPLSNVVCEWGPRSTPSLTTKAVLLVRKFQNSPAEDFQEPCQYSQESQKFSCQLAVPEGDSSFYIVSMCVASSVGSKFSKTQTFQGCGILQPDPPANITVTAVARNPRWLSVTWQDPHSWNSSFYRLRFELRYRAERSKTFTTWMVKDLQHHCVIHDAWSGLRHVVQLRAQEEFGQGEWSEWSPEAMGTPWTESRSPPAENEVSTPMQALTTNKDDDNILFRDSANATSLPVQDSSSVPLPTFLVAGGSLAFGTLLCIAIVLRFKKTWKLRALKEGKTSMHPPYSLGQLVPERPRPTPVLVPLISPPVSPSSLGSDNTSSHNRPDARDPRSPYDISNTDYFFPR

Human soluble IL-6R [3] = molecular target: T1, Human soluble IL-6R; test: Biacore T100, IL-6R covalently coupled
Human soluble IL-6R [4] = molecular target: T1, Human soluble IL-6R; test: Biacore T100, IL-6R captured via mAb BN-12
Cyno IL-6R = molecular target: B2; test: SPR Biacore 3000, cyno IL-6R amine-coupled to CM5
Experimental: Remaining reactive groups were inactivated. […] Each sample was injected for 4 min at a flow rate of 45 μl/min to allow for binding to chip-bound antigen. Next, binding buffer without Nanobody was sent over the chip at the same flow rate to allow for dissociation of bound Nanobody.

Human soluble IL-6R [5] = molecular target: T1, Human soluble IL-6R; test: SPR Biacore 3000, human IL-6R amine-coupled to CM5
Experimental: Remaining reactive groups were inactivated. Nanobody binding was assessed at various concentrations ranging from 0.5 to 50 nM. Each sample was injected for 4 min at a flow rate of 45 μl/min to allow for binding to chip-bound antigen. Next, binding buffer without Nanobody was sent over the chip at the same flow rate to allow for dissociation of bound Nanobody.

Human plasma sIL-6R [6] = molecular target: T3, Human plasma sIL-6R (human, UniProt P08887 20-355, limits assumed); test: plasma potency ELISA, human plasma, IL-6 at EC50 (50 ng/mL)
T3 construct: also called plasma-derived human IL-6R
T3 sequence (looked up): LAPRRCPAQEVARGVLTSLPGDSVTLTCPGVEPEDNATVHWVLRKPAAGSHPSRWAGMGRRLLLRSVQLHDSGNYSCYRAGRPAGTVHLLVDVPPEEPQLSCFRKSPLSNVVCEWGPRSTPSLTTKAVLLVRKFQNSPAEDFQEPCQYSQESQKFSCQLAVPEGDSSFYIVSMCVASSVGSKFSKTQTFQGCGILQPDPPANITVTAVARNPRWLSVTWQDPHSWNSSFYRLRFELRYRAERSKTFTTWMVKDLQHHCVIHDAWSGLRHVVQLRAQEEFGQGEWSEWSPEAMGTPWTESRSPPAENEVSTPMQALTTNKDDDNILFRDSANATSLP

Human plasma sIL-6R [7] = molecular target: T3, Human plasma sIL-6R; test: plasma potency ELISA, human plasma, IL-6 at EC95 (885 ng/mL)
Cyno plasma sIL-6R [8] = molecular target: T4, Cyno plasma sIL-6R (cynomolgus monkey, UniProt A0A2K5WN54 60-396); test: plasma potency assay, cyno plasma, 2.4 nM IL6; blocked ligand IL-6
T4 construct: also called cynomolgus sIL-6R
T4 sequence: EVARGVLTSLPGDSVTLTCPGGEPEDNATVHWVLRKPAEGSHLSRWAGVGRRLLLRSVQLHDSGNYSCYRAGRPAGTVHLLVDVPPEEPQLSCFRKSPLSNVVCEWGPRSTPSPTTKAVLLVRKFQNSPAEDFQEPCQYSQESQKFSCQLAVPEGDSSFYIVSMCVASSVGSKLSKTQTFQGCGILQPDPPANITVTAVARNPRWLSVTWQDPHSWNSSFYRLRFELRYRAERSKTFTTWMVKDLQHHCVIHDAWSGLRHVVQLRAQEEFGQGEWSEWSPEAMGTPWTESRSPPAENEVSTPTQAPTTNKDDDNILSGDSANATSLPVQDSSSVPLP
Experimental: (§1) All 5 affinity matured Nanobodies and the sequence optimized Nanobody were also tested in a plasma potency assay. […] TMB was used as substrate.

Human plasma sIL-6R [9] = molecular target: T3, Human plasma sIL-6R; test: plasma potency assay, human plasma, 42 nM IL6; blocked ligand IL-6
Experimental: as §1

Human plasma sIL-6R [10] = molecular target: T3, Human plasma sIL-6R; test: plasma potency assay, human plasma, 2.4 nM IL6; blocked ligand IL-6
Experimental: as §1

Human soluble IL-6R [11] = molecular target: T1, Human soluble IL-6R; test: SPR (Biacore), binding curves at several concentrations of purified Nanobody on IL-6R
Human plasma sIL-6R [12] = molecular target: T3, Human plasma sIL-6R; test: plasma potency assay, human plasma, 42 nM IL6; sIL-6R captured on BN-12, bound IL-6 detected; blocked ligand IL-6
Human soluble IL-6R [13] = molecular target: T1, Human soluble IL-6R; test: Alphascreen IL-6/IL-6R competition with purified Nanobody; row EC50 of the table, axis [inhibitor], M; blocked ligand IL-6
Cyno plasma sIL-6R [14] = molecular target: T4, Cyno plasma sIL-6R; test: plasma potency ELISA, cyno plasma + human IL-6 50 ng/mL; sIL-6R captured on BN-12, bound IL-6 detected; blocked ligand IL-6
Human plasma sIL-6R [15] = molecular target: T3, Human plasma sIL-6R; test: plasma potency ELISA, human plasma + human IL-6 50 ng/mL; sIL-6R captured on BN-12, bound IL-6 detected; blocked ligand IL-6
Cyno plasma sIL-6R [16] = molecular target: T4, Cyno plasma sIL-6R; test: plasma potency assay, cyno plasma ([IL6R]: ~0.4 nM, [IL6]: 2.4 nM printed); sIL-6R captured on BN-12, bound IL-6 detected; blocked ligand IL-6
Human plasma sIL-6R [17] = molecular target: T3, Human plasma sIL-6R; test: plasma potency assay, human plasma ([IL6R]: ~0.4 nM, [IL6]: 2.4 nM printed); sIL-6R captured on BN-12, bound IL-6 detected; blocked ligand IL-6
PMP20A11 = molecular target: T5, PMP20A11; test: competition ELISA: IL6R20A11 (0.4 nM) pre-incubated with a series of recombinant sIL-6R; free IL6R20A11 captured on biotinylated human sIL-6R on neutravidin
T5 construct: also called IL6R20A11; IL6R300; not shown: c-myc and (His)6 tags

[18] = molecular target: T2, Human membrane IL-6R on cells; test: cell-based or functional assay; remark: listed apart in the source
[19] = molecular target: T2, Human membrane IL-6R on cells; test: cell-based or functional assay; remark: listed apart in the source
[20] = molecular target: T2, Human membrane IL-6R on cells; test: cell-based or functional assay; remark: listed apart in the source
Human soluble IL-6R [21] = molecular target: T1, Human soluble IL-6R; test: Biacore off-rate, periplasmic extract
Human soluble IL-6R [22] = molecular target: T1, Human soluble IL-6R; test: Biacore off-rate, periplasmic extracts
Human soluble IL-6R [23] = molecular target: T1, Human soluble IL-6R; test: Biacore, binding to IL-6R (parent value)
Human soluble IL-6R [24] = molecular target: T1, Human soluble IL-6R; test: SPR Biacore 3000, IL-6R amine-coupled to CM5
Experimental: (§2) Nanobodies were injected at 5 different concentrations between 1 and 50 nM. Flow rate was 45 μl/min in all experiments. Association and dissociation phase were 3 and 10 min, respectively. The chip was regenerated using Glycine/HCl pH 1.5.

Human soluble IL-6R [25] = molecular target: T1, Human soluble IL-6R; test: Alphascreen, inhibition of bio-IL-6 binding to IL-6R
Experimental: (§3) Finally streptavidin donor beads were added and after 1 hour incubator the plate was read on the Envision microplate reader.

Human soluble IL-6R [26] = molecular target: T1, Human soluble IL-6R; test: summary table C-13 of Nanobody characteristics, Kd on IL-6R
Experimental: as §2

Human soluble IL-6R [27] = molecular target: T1, Human soluble IL-6R; test: inhibition of the IL-6/IL-6R interaction, summary table C-13
Experimental: as §3

Human soluble IL-6R [28] = molecular target: T1, Human soluble IL-6R; test: competition for IL-6R, competitor reference Fab, summary table C-13
Human soluble IL-6R [29] = molecular target: T1, Human soluble IL-6R; test: Alphascreen, 100 nM Nanobody, 0.4 nM bio-IL-6R; competitor: reference Fab
Mouse IL-6R = molecular target: T6, Mouse IL-6R (mouse, UniProt P22272 20-364, limits assumed); test: ELISA: plate coated with 1 µg/ml mouse IL-6R, 500 nM Nanobody, anti-myc + anti-mouse-HRP
T6 construct: also called mouse sIL-6R
T6 sequence (looked up): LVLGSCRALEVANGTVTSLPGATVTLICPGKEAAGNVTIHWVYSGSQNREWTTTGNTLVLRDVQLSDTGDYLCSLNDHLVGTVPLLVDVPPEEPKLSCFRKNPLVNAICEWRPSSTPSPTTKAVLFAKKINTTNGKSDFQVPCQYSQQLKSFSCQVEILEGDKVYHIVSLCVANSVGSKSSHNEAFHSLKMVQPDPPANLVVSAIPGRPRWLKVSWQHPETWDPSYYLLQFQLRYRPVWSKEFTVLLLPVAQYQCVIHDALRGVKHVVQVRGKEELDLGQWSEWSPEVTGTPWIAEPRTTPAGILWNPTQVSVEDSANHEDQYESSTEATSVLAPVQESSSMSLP
Experimental: Detection was performed with anti-myc and anti-mouse-HRP as first and second antibody respectively.

Human soluble IL-6R [30] = molecular target: T1, Human soluble IL-6R; test: Alphascreen IL-6/IL-6R competition (IL-6R 0.3 nM, bio-IL-6 3 nM); row EC50 of the fit table, axis [competitor], M; blocked ligand IL-6

Kd (Human soluble IL-6R [1]): 3.8 nM
IC50 values (nM), XG-1 assay [2]: 26 nM
koff (Human soluble IL-6R [3]): 0.0038 s⁻¹
kon (Human soluble IL-6R [4]): 1e+06 M⁻¹ s⁻¹
Kd (Cyno IL-6R): 12 nM
koff (Cyno IL-6R): 0.00197 s⁻¹
kon (Cyno IL-6R): 165000 M⁻¹ s⁻¹
Kd (Human soluble IL-6R [5]): 4 nM
koff (Human soluble IL-6R [5]): 0.00235 s⁻¹
kon (Human soluble IL-6R [5]): 600000 M⁻¹ s⁻¹
IC50 (Human plasma sIL-6R [6]): 2.61 nM
IC50 (Human plasma sIL-6R [7]): 66.2 nM
IC50 (Cyno plasma sIL-6R [8]): 0.9 nM
IC50 (Human plasma sIL-6R [9]): 24.8 nM
IC50 (Human plasma sIL-6R [10]): 1.9 nM
Kd (Human soluble IL-6R [11]): 4.3 nM
IC50 (Human plasma sIL-6R [12]): 61.5 nM
IC50 (Human soluble IL-6R [13]): 0.147 nM
IC50 (read off the curve) (Cyno plasma sIL-6R [14]): ~0.1 nM
IC50 (read off the curve) (Human plasma sIL-6R [15]): ~0.7 nM
IC50 (Cyno plasma sIL-6R [16]): 2.99 nM
IC50 (Human plasma sIL-6R [17]): 4.93 nM
B1: IL6R65 (VHH)
VHH: EVQLVESGGGLVQPGGSLRLSCAASGSIFKVNAMGWYRQAPGKGRELVAGIISGGSTNYADSVKGRFTISRDNAKNTLYLQMNSLRPEDTAVYYCAFVTTNSDYDLGRDYWGQGTLVTVSS
notes: also called ILR65; parent Nanobody

Binder: B2
IC50 (read off the curve) (PMP20A11): ~3 ng/mL

IC50 (nM) + HSA, XG-1 cell proliferation [18]: 1.3 nM
IC50 (nM), XG-1 cell proliferation [18]: 1.4 nM
IC50 (nM), TF1 cell proliferation [19]: 5.2 nM
IC50 (nM) XG-1 [20]: 1.4 nM
IC50 values (nM), XG-1 assay [2]: 1.4 nM
koff (Human soluble IL-6R [21]): 0.000178 s⁻¹
koff (Human soluble IL-6R [22]): 0.00021 s⁻¹
Kd (Human soluble IL-6R [23]): 0.7 nM
Kd (Human soluble IL-6R [24]): 0.5 nM and 0.8 nM
koff (Human soluble IL-6R [24]): 0.000121 s⁻¹ and 0.000109 s⁻¹ and 0.000178 s⁻¹
kon (Human soluble IL-6R [24]): 231000 M⁻¹ s⁻¹ and 137000 M⁻¹ s⁻¹
IC50 (Human soluble IL-6R [25]): 0.0477 nM
Kd (Human soluble IL-6R [26]): 0.5 nM
IC50 (Human soluble IL-6R [27]): 0.05 nM
Ref Fab competition (%) (Human soluble IL-6R [28]): 25%
Residual reference-Fab binding to IL-6R (%) (Human soluble IL-6R [29]): 25%
binding result (Mouse IL-6R): no binding (tested: 500 nM)
IC50 (Human soluble IL-6R [13]): 0.0505 nM
IC50 (Human soluble IL-6R [30]): 0.0644 nM
B3: IL6R13 (VHH)
VHH: EVQLVESGGGLVQPGGSLRLSCAASGFTFDDYGMSWVRQAPGRATEWVSAISWNGNNTYYTESMKGRFTISRDNAKNTVYLQMNSLKPEDTAVYYCVKGSTAIVGVPPTYPDEYDYWGQGTQVTVSS
notes: also called PMP35H4; not shown: C-terminal c-myc and (His)6 tags

Reference: US20120077731A1 (Ablynx, published 2012)
